# Paper PMC9941103
# Several values for one entry are separate records, joined by “and”; a condition that tells them apart may be missing. Equal values may be shown once.
# Columns and labels:
# [1] = biological target: SNARE:Complexin-1 complex (UniProt P60881); test: native MS; equimolar Complexin-1 added to the pre-assembled SNARE complexes
# [2] = biological target: fully assembled ternary SNARE complex (SNAP25:Syntaxin-1A:Synaptobrevin-2, 3Q:1R) (UniProt P60881); test: native MS; Synaptobrevin-2, SNAP25 and Syntaxin-1A mixed 1:1:1, incubated overnight
# [3] = biological target: fully assembled ternary SNARE complex (SNAP25:Syntaxin-1A:Synaptobrevin-2, 3Q:1R) (UniProt P60881); test: native MS; equimolar Syntaxin-1A added to the pre-assembled 2:1 SNAP25:Synaptobrevin-2 complex
# [4] = biological target: fully assembled ternary SNARE complex (SNAP25:Syntaxin-1A:Synaptobrevin-2, 3Q:1R) (UniProt P60881); test: native MS; 1.2 molar excess of Synaptobrevin-2 added to pre-assembled binary SNAP25:Syntaxin-1A complexes (1:2 mix), analysed directly
# [5] = biological target: pre-assembled binary SNAP25:Syntaxin-1A complex (1:2, 4Q:0R) (UniProt P60881); test: native MS; SNAP25 and Syntaxin-1A mixed 1:2; 200 mM ammonium acetate
substance,measurement,setting,value
SNARE:Complexin-1 complex (from UniProt P60881 1-206; P32851 1-262; P63045 1-96; P63041 1-134),stoichiometry N,[1],2
"fully assembled ternary SNARE complex (SNAP25:Syntaxin-1A:Synaptobrevin-2, 3Q:1R) (from UniProt P60881 1-206; P32851 1-262; P63045 1-96)",stoichiometry N,[2],2 and 3
same,stoichiometry N,[3],2 and 3 and 4
same,stoichiometry N,[4],2 and 3
"pre-assembled binary SNAP25:Syntaxin-1A complex (1:2, 4Q:0R) (from UniProt P60881 1-206; P32851 1-262)",stoichiometry N,[5],2
